Measured values as given in publication PMC9160049, “Cryo-EM structures of Gid12-bound GID E3 reveal steric blockade as a mechanism inhibiting substrate ubiquitylation” (Nature Communications, 2022).

Columns and labels:
[1] = target: Chelator-GID^SR4 (Gid7-Gid4-Gid5-Gid1-Gid8-Gid2-Gid9), Twin-Strep at the C-terminus of Gid8 (S. cerevisiae) (UniProt P53076); assay: cryo-EM structure; Cage-GID^SR4 prepared without Gid12, co-expressed in Hi5 cells and purified; 19.8 Å map fitted with three Chelator-GID^SR4 models
[2] = target: Gid12-Chelator-GID^SR4 (Gid12-Gid7-Gid4-Gid5-Gid1-Gid8-Gid2-Gid9), Twin-Strep at the C-terminus of Gid8 (S. cerevisiae) (UniProt Q12027); assay: cryo-EM structure; maps of Gid12-GID^SR4 (9.8 Å), Gid12-Chelator-GID^SR4 (19.4 Å) and Gid12-Cage-GID^SR4 (20.6 Å), complexes co-expressed in Hi5 cells and purified; docked with Gid12-SRS and prior structures
[3] = target: PHSVTP-Fbp1 (Fbp1 with its N-terminus exchanged to Mdh2 degron) (S. cerevisiae) (UniProt P09201); assay: cryo-EM structure; purified Cage-GID^SR4 at 1 mg/ml with fivefold molar excess of purified PHSVTP-Fbp1 added directly before grid preparation; 12.2 Å; 25 mM HEPES pH 7.5, 50 mM NaCl, 5 mM DTT
[4] = target: the molecule itself; assay: cryo-EM structure; purified Chelator-GID^SR4 at 0.6 mg/ml with threefold molar excess of purified Mdh2-6×His added directly before grid preparation; 18.9 Å; 25 mM HEPES pH 7.5, 150 mM NaCl, 5 mM DTT
[5] = target: T1, 3×HA-Gid4 (endogenously N-terminally HA-tagged Gid4) (S. cerevisiae (endogenous in BY4741), UniProt P38263 1-362); assay: affinity purification with mass spectrometry; 3×HA-Gid4 on anti-HA resin, eluted with HA peptide, from BY4741 GID12-9×cMYC lysate; glycolytic conditions, ethanol starvation for 16 h or carbon recovery; iBAQ quantification; conditions: partners not purified
T1 construct: Gid4 (Vid24), S. cerevisiae, tagged at the endogenous locus; source: endogenous locus, BY4741 GID12-9×cMYC::kanMX4, 3×HA-GID4 yeast, in lysate; not shown: 3×HA, N-terminal, kept
T1 sequence (looked up): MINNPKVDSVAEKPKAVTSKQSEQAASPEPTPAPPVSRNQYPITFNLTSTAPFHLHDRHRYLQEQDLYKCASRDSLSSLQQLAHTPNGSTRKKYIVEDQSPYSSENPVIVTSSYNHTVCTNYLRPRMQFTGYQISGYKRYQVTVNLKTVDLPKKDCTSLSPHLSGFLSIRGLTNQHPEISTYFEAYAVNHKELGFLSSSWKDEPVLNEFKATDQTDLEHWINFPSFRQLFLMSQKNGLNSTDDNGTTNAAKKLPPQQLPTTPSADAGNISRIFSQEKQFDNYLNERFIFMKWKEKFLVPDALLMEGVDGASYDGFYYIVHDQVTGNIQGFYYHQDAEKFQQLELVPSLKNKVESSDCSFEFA

Molecule: Chelator-GID^SR4 (Gid7-Gid4-Gid5-Gid1-Gid8-Gid2-Gid9), Twin-Strep at the C-terminus of Gid8, P53076 1-958; Q12508 1-421; P38263 1-362; P40547 1-921; P25569 1-745; P40208 1-455; P40492 1-516
- stoichiometry N [1]: 3

Molecule: Gid12-Chelator-GID^SR4 (Gid12-Gid7-Gid4-Gid5-Gid1-Gid8-Gid2-Gid9), Twin-Strep at the C-terminus of Gid8, Q12027 1-708; P53076 1-958; Q12508 1-421; P38263 1-362; P40547 1-921; P25569 1-745; P40208 1-455; P40492 1-516
- stoichiometry N [2]: 3

Molecule: PHSVTP-Fbp1 (Fbp1 with its N-terminus exchanged to Mdh2 degron) (from UniProt P09201 1-348) (enzyme)
- stoichiometry N [3]: 4

B1: Mdh2-6×His (enzyme, S. cerevisiae, UniProt P22133 2-377, looked up)
chain: PHSVTPSIEQDSLKIAILGAAGGIGQSLSLLLKAQLQYQLKESNRSVTHIHLALYDVNQEAINGVTADLSHIDTPISVSSHSPAGGIENCLHNASIVVIPAGVPRKPGMTRDDLFNVNAGIISQLGDSIAECCDLSKVFVLVISNPVNSLVPVMVSNILKNHPQSRNSGIERRIMGVTKLDIVRASTFLREINIESGLTPRVNSMPDVPVIGGHSGETIIPLFSQSNFLSRLNEDQLKYLIHRVQYGGDEVVKAKNGKGSATLSMAHAGYKCVVQFVSLLLGNIEQIHGTYYVPLKDANNFPIAPGADQLLPLVDGADYFAIPLTITTKGVSYVDYDIVNRMNDMERNQMLPICVSQLKKNIDKGLEFVASRSASS
notes: Mdh2 (malate dehydrogenase), S. cerevisiae; The name is written Mdh2-6×His; also called malate dehydrogenase; source: purified
- stoichiometry N [4]: 2

B2: Gid12-9×cMYC (natural protein, S. cerevisiae (endogenous in BY4741), UniProt Q12027 1-708, looked up)
chain: MATGRIQFAVSTPCNTKGKPSGYRLFEFKNDRLALVPSERGCTKVDVNANIQAFCYLRPNGRDTSISPDATHILDSCDYMVLAKSNGFIEIISNYQYKIKNGLRLAPSYILRCTPEDFESNFFSDYMIAGLEYSQGLLYCCMCSGRIYVFVMNLPTDYIQYKNMYNPMFPDCFFKVHHDNNTTHSSEEEKLFEGSTRYTGRSCSKHICYFLLPIEPSHLRSSPVVSSFCNMYQGLPIYRPSMYLHIERGISTFHINPLDRFCFMTVSPRSPLFIRKIILPLTYVTFLSTFISLKNSIQGDTCGEILSWDNVAQQNGFGSLFSWISNKFTFDTDIINSTIWDDIVKYSGTGMLDSGIVWKQRQGHAKDDIYELFHTQDMLGSSRRNSSFSTASSEPRPLSRRRRESFQALTRDAFRERMDVPCSTKWELDSFIRGLRRNTFMVDFEIVEKISHRNGNDGVNEDDNTTDESDETMTSFLTDNYKKMDIVCIDHFVTLSAFRPRYYDEPIIKIDSLSNKNGSENGTNEEEWAESQMKVDGQVIDDETAQFKQALGNLCSFKKLFMLDDSLCFILDTHGVLLINRFEIKNTKNLLRNSKDTIRIIPHDFGLINDTIVIINDIDVGTDNVCALTFHLVVTSMAGEITVLKGEFFKNCRLGRIKLCDSLKLNRKDRFVDKLALIDYDGLNAQKRRLDYDEKDLYTFIVKKVKRD
notes: Gid12 (Ipf1, YDL176W), S. cerevisiae, tagged at the endogenous locus; The strain name is written GID12-9×cMYC; source: endogenous locus, BY4741 GID12-9×cMYC::kanMX4, 3×HA-GID4 yeast, in lysate
- ratio of Gid12 to Gid4 in the Gid4 immunoprecipitate (iBAQ), glycolytic growth conditions [5]: ~0.2 Gid12:Gid4
- stoichiometry of Gid12 to Gid4 in the Gid4 immunoprecipitate (iBAQ), gluconeogenic growth conditions [5]: ~1 Gid12:Gid4
